Experimental data: paper doi:10.1101/2022.10.28.514188 (bioRxiv, 2022)
Values joined by “and” are separate entries in the source; they are usually repeats but may differ in a detail not shown here. Equal values may be shown once.

What was measured:
[1] = target: CLPB^isoform1 (isoform-1 of CLPB) (human); assay: negative-stain EM + cryo-EM 2D classification
[2] = target: CLPB-NBD (NBD-only variant, N-terminal ANK domain truncated) (human) (UniProt Q9H078); assay: cryo-EM 2D classification
CLPB-NBD^E425Q (human) = CLPB-NBD^E425Q (human) (UniProt Q9H078); assay: cryo-EM structure
SEC = target: the molecule itself; assay: SEC
[3] = target: the molecule itself; assay: cryo-EM 2D classification
cryo-EM structure [4] = target: the molecule itself; assay: cryo-EM structure
[5] = target: the molecule itself; assay: SEC + other: negative-stain EM
cryo-EM structure [6] = target: the molecule itself; assay: cryo-EM structure; remark: listed apart in the source

Work on “CLPB^isoform1 (isoform-1 of CLPB) (enzyme)” yielded a stoichiometry N [1] of 14.

In the case of “CLPB-NBD (NBD-only variant, N-terminal ANK domain truncated) (from UniProt Q9H078-2 1-677) (domain or fragment)”, the stoichiometry N [2] is reported as 6 and 7.

For “CLPB-NBD^E425Q (from UniProt Q9H078-2 1-677) (domain or fragment)”, the stoichiometry N (CLPB-NBD^E425Q (human)) was 6 and 7 and 9.

B1: CLPB^Δ201-232 (insertion between AM2 and AM3 deleted) (enzyme)
chain: YSKSPSNKDAALLEAARANNMQEVSRLLSEGADVNAKHRLGWTALMVAAINRNNSVVQVLLAAGADPNLGDDFSSFKGCTALHYAVLADDYRTVKELLDGGANPLQRNEMGHTPLDYAREGEVMKLLRTSEAKYQEKQRKREAEERRRFPLEQRLKEHIIGQESAIATVGAAIRRKENGWYDEEHPLVFLFLGSSGIGKTELAKQTAKYMHKDAKKGFIRLDMSEFQERHEVAKFIGSPPGYVGHEEGGQLTKKLKQCPNAVVLFDEVDKAHPDVLTIMLQLFDEGRLTDGKGKTIDCKDAIFIMTSNVASDEIAQHALQLRQEALEMSRNRIAENLGDVQISDKITISKNFKENVIRPILKAHFRRDEFLGRINEIVYFLPFCHSELIQLVNKELNFWAKRAKQRHNITLLWDREVADVLVDGYNVHYGARSIKHEVERRVVNQLAAAYEQDLLPGGCTLRITVEDSDKQLLKSPELPSPQAEKRLPKLRLEIIDKDSKTRRLDIRAPLHPEKVCNTI
B1: binds (SEC).

B2: CLPB-N127 (human CLPB isoform 2 starting from the PARL cleavage site), wild type (enzyme)
chain: YSKSPSNKDAALLEAARANNMQEVSRLLSEGADVNAKHRLGWTALMVAAINRNNSVVQVLLAAGADPNLGDDFSSVYKTAKEQGIHSLEVLITREDDFNNRLNNRASFKGCTALHYAVLADDYRTVKELLDGGANPLQRNEMGHTPLDYAREGEVMKLLRTSEAKYQEKQRKREAEERRRFPLEQRLKEHIIGQESAIATVGAAIRRKENGWYDEEHPLVFLFLGSSGIGKTELAKQTAKYMHKDAKKGFIRLDMSEFQERHEVAKFIGSPPGYVGHEEGGQLTKKLKQCPNAVVLFDEVDKAHPDVLTIMLQLFDEGRLTDGKGKTIDCKDAIFIMTSNVASDEIAQHALQLRQEALEMSRNRIAENLGDVQISDKITISKNFKENVIRPILKAHFRRDEFLGRINEIVYFLPFCHSELIQLVNKELNFWAKRAKQRHNITLLWDREVADVLVDGYNVHYGARSIKHEVERRVVNQLAAAYEQDLLPGGCTLRITVEDSDKQLLKSPELPSPQAEKRLPKLRLEIIDKDSKTRRLDIRAPLHPEKVCNTI
B2 was tested, and the “stoichiometry N” value [3] was 12 and the “stoichiometry N” value (cryo-EM structure [4]) was 14.

B3: CLPB^R227E (enzyme)
chain: YSKSPSNKDAALLEAARANNMQEVSRLLSEGADVNAKHRLGWTALMVAAINRNNSVVQVLLAAGADPNLGDDFSSVYKTAKEQGIHSLEVLITREDDFNNELNNRASFKGCTALHYAVLADDYRTVKELLDGGANPLQRNEMGHTPLDYAREGEVMKLLRTSEAKYQEKQRKREAEERRRFPLEQRLKEHIIGQESAIATVGAAIRRKENGWYDEEHPLVFLFLGSSGIGKTELAKQTAKYMHKDAKKGFIRLDMSEFQERHEVAKFIGSPPGYVGHEEGGQLTKKLKQCPNAVVLFDEVDKAHPDVLTIMLQLFDEGRLTDGKGKTIDCKDAIFIMTSNVASDEIAQHALQLRQEALEMSRNRIAENLGDVQISDKITISKNFKENVIRPILKAHFRRDEFLGRINEIVYFLPFCHSELIQLVNKELNFWAKRAKQRHNITLLWDREVADVLVDGYNVHYGARSIKHEVERRVVNQLAAAYEQDLLPGGCTLRITVEDSDKQLLKSPELPSPQAEKRLPKLRLEIIDKDSKTRRLDIRAPLHPEKVCNTI
B3: binds [5].

B4: CLPB^R178E (enzyme)
chain: YSKSPSNKDAALLEAARANNMQEVSRLLSEGADVNAKHRLGWTALMVAAINENNSVVQVLLAAGADPNLGDDFSSVYKTAKEQGIHSLEVLITREDDFNNRLNNRASFKGCTALHYAVLADDYRTVKELLDGGANPLQRNEMGHTPLDYAREGEVMKLLRTSEAKYQEKQRKREAEERRRFPLEQRLKEHIIGQESAIATVGAAIRRKENGWYDEEHPLVFLFLGSSGIGKTELAKQTAKYMHKDAKKGFIRLDMSEFQERHEVAKFIGSPPGYVGHEEGGQLTKKLKQCPNAVVLFDEVDKAHPDVLTIMLQLFDEGRLTDGKGKTIDCKDAIFIMTSNVASDEIAQHALQLRQEALEMSRNRIAENLGDVQISDKITISKNFKENVIRPILKAHFRRDEFLGRINEIVYFLPFCHSELIQLVNKELNFWAKRAKQRHNITLLWDREVADVLVDGYNVHYGARSIKHEVERRVVNQLAAAYEQDLLPGGCTLRITVEDSDKQLLKSPELPSPQAEKRLPKLRLEIIDKDSKTRRLDIRAPLHPEKVCNTI
B4: binds [5].

B5: CLPB^E425Q (Walker B mutant of CLPB-N127, isoform 2) (enzyme)
chain: YSKSPSNKDAALLEAARANNMQEVSRLLSEGADVNAKHRLGWTALMVAAINRNNSVVQVLLAAGADPNLGDDFSSVYKTAKEQGIHSLEVLITREDDFNNRLNNRASFKGCTALHYAVLADDYRTVKELLDGGANPLQRNEMGHTPLDYAREGEVMKLLRTSEAKYQEKQRKREAEERRRFPLEQRLKEHIIGQESAIATVGAAIRRKENGWYDEEHPLVFLFLGSSGIGKTELAKQTAKYMHKDAKKGFIRLDMSEFQERHEVAKFIGSPPGYVGHEEGGQLTKKLKQCPNAVVLFDQVDKAHPDVLTIMLQLFDEGRLTDGKGKTIDCKDAIFIMTSNVASDEIAQHALQLRQEALEMSRNRIAENLGDVQISDKITISKNFKENVIRPILKAHFRRDEFLGRINEIVYFLPFCHSELIQLVNKELNFWAKRAKQRHNITLLWDREVADVLVDGYNVHYGARSIKHEVERRVVNQLAAAYEQDLLPGGCTLRITVEDSDKQLLKSPELPSPQAEKRLPKLRLEIIDKDSKTRRLDIRAPLHPEKVCNTI
For B5, the “stoichiometry N” value (cryo-EM structure [6]) was 12.
